In US20210324063A1:

Biological target: recombinant human VEGF-165 (R&D Systems) (human) (UniProt P15692)
Sequence (P15692 other isoform, or with tags, fused parts or gaps limits assumed): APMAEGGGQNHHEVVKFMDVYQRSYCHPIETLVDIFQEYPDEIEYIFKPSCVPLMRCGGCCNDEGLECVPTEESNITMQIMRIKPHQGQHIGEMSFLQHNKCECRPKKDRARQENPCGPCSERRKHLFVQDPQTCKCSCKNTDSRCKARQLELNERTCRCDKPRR

IC50, inhibition of VEGF-stimulated HuRMVEC proliferation (WST-1, OD450): 0.683 nM
Substance: Eylea (aflibercept) (Fc fusion)
